These are literature values, as cited in paper PMC10636758.

For data set [1], the target named is Histone H3 peptide (Homo sapiens).
The target of the next data set is HP1α (Homo sapiens) (UniProt P45973).

For HP1α CSD (from UniProt P45973), the Kd in data set [1] was 58 µM. HP1α (from UniProt P45973): the Kd in the data set with HP1α (Homo sapiens) is less than 1 µM.
